According to patent US20210054097A1 (Novo Nordisk, published 2021):
Ends that are not written are not given here.

B1: Nb 701B09 (VHH)
VHH: EVQLVESGGGVVQPGGSLRLSCAASGRTFSTYAMGWFRQAPGKEREFVAAISWSGSRTYYADSVKGRFTISRDNSKNTVYLQMNSLRPEDTALYYCAADATPANGELDYWGQGTLVTVSS
notes: monovalent Nanobody; also called Nb 701609; not shown: C-terminal FLAG3 and HIS6 tag
B2: Nb 701D07 (VHH)
VHH: EVQLVESGGGVVQPGGSLRLSCAASGGTLSRYAMGWFRQAPGKEREFVAAITRRGSRTYYADSVKGRFTISRDNSKNTVYLQMNSLRPEDTALYYCAADLAPGDYALDYWGQGTLVTVSS
notes: monovalent Nanobody; not shown: C-terminal FLAG3 and HIS6 tag

Target: T1, FX activation peptide 12-mer SSGEAPDSITWK (human)
T1 peptide: SSGEAPDSITWK-biotin
Assay: peptide ELISA
Description: (§1) The peptides were C-terminally conjugated to biotin and 50 μL of 1 μg/mL peptide solution was used for immobilization in discrete wells of the microtiter plate which was pre-coated with 1 μg/mL streptavidin. Each well was washed with washing buffer (10 mM Tris, 150 mM NaCl, 2.5 mM CaCl₂, 0.05% Tween 20, pH 8.60) followed by addition of 50 μL of 2 μg/mL FLAG-tagged anti-FX Nanobody® or IgG antibody to be tested. After 1 hour non-bound Nanobody®/antibody was washed off using washing buffer.
(§2) Bound anti-FX activation peptide ligand was detected by first binding a HRP-labelled secondary antibody (for FLAG-tagged Nanobodies: Anti-FLAG mAb M2-Peroxidase (HRP) (Sigma Aldrich, US), for antibody: Fcγ Fragment Specific Peroxidase AffiniPure F(ab′)₂ Fragment Goat Anti-Human IgG (Jackson ImmunoResearch Laboratories, Inc., US), or Peroxidase AffiniPure Goat Anti-Mouse IgG (Jackson ImmunoResearch Laboratories, Inc., US)) for 1 hour, and then adding 100 μL TMB-1 ELISA substrate (Kem-En-Tec Diagnostics, Denmark).

Compared with B1, B2 is lower in “ELISA signal relative to background” value: 0.89 for the first, 0.74 for the second.

Target: T2, FX activation peptide 12-mer EAPDSITWKPYD (human)
T2 peptide: EAPDSITWKPYD-biotin
Assay: peptide ELISA
Description: as §1, §2

Compared with B1, B2 is lower in “ELISA signal relative to background” value: 0.79 for the first, 0.76 for the second.

Target: T3, FX activation peptide 12-mer DFNQTQPERGDN (human)
T3 peptide: DFNQTQPERGDN-biotin
Assay: peptide ELISA
Description: as §1, §2

Compared with B1, B2 is lower in “ELISA signal relative to background” value: 0.87 for the first, 0.75 for the second.

Target: T4, FX activation peptide 12-mer VAQATSSSGEAP (human)
T4 peptide: VAQATSSSGEAP-biotin
Assay: peptide ELISA
Description: as §1, §2

Compared with B1, B2 is higher in “ELISA signal relative to background” value: 0.73 for the first, 0.84 for the second.

Target: T5, FX activation peptide 12-mer WKPYDAADLDPT (human)
T5 peptide: WKPYDAADLDPT-biotin
Assay: peptide ELISA
Description: as §1, §2

Going from B1 to B2, the “ELISA signal relative to background” value falls from 1.14 to 0.85.

Target: T6, FX activation peptide 12-mer FDLLDFNQTQPE (human)
T6 peptide: FDLLDFNQTQPE-biotin
Assay: peptide ELISA
Description: as §1, §2

Compared with B1, B2 is lower in “ELISA signal relative to background” value: 3.27 for the first, 0.99 for the second.

Target: T7, FX activation peptide 12-mer ATSSSGEAPDSI (human)
T7 peptide: ATSSSGEAPDSI-biotin
Assay: peptide ELISA
Description: as §1, §2

First: B1
Second: B2
The “ELISA signal relative to background” value of the first is lower: 0.82 for the first, 0.86 for the second.

Target: T8, FX activation peptide 12-mer PYDAADLDPTEN (human)
T8 peptide: PYDAADLDPTEN-biotin
Assay: peptide ELISA
Description: as §1, §2

First: B1
Second: B2
The “ELISA signal relative to background” value of the first is higher: 0.88 for the first, 0.73 for the second.

Target: T9, FX activation peptide 12-mer TQPERGDNNLTR (human)
T9 peptide: TQPERGDNNLTR-biotin
Assay: peptide ELISA
Description: as §1, §2

Going from B1 to B2, the “ELISA signal relative to background” value falls from 0.93 to 0.88.

Target: T10, FX activation peptide 12-mer SITWKPYDAADL (human)
T10 peptide: SITWKPYDAADL-biotin
Assay: peptide ELISA
Description: as §1, §2

Going from B1 to B2, the “ELISA signal relative to background” value rises from 0.84 to 1.04.

Target: T11, FX activation peptide 12-mer ADLDPTENPFDL (human)
T11 peptide: ADLDPTENPFDL-biotin
Assay: peptide ELISA
Description: as §1, §2

Going from B1 to B2, the “ELISA signal relative to background” value rises from 0.73 to 0.77.

Target: T12, FX activation peptide 12-mer SVAQATSSSGEA (human)
T12 peptide: SVAQATSSSGEA-biotin
Assay: peptide ELISA
Description: as §1, §2

B1 and B2 are the same in “ELISA signal relative to background” value: 0.76 for the first, 0.76 for the second.

Target: T13, FX activation peptide 12-mer NQTQPERGDNNL (human)
T13 peptide: NQTQPERGDNNL-biotin
Assay: peptide ELISA
Description: as §1, §2

Compared with B1, B2 is higher in “ELISA signal relative to background” value: 0.79 for the first, 0.87 for the second.

Target: T14, FX activation peptide 12-mer TENPFDLLDFNQ (human)
T14 peptide: TENPFDLLDFNQ-biotin
Assay: peptide ELISA
Description: as §1, §2

In the case of B1, the “ELISA signal relative to background” value is reported as 4.38.

Target: T15, FX activation peptide 12-mer AADLDPTENPFD (human)
T15 peptide: AADLDPTENPFD-biotin
Assay: peptide ELISA
Description: as §1, §2

First: B1
Second: B2
The “ELISA signal relative to background” value of the first is higher: 0.79 for the first, 0.69 for the second.

Target: T16, FX activation peptide 12-mer FNQTQPERGDNN (human)
T16 peptide: FNQTQPERGDNN-biotin
Assay: peptide ELISA
Description: as §1, §2

Compared with B1, B2 is lower in “ELISA signal relative to background” value: 0.89 for the first, 0.82 for the second.

Target: T17, FX activation peptide 12-mer AQATSSSGEAPD (human)
T17 peptide: AQATSSSGEAPD-biotin
Assay: peptide ELISA
Description: as §1, §2

First: B1
Second: B2
The “ELISA signal relative to background” value of the first is lower: 0.75 for the first, 0.89 for the second.

Target: T18, FX activation peptide 12-mer DSITWKPYDAAD (human)
T18 peptide: DSITWKPYDAAD-biotin
Assay: peptide ELISA
Description: as §1, §2

Going from B1 to B2, the “ELISA signal relative to background” value rises from 0.76 to 0.89.

Target: T19, FX activation peptide 12-mer LDPTENPFDLLD (human)
T19 peptide: LDPTENPFDLLD-biotin
Assay: peptide ELISA
Description: as §1, §2

Going from B1 to B2, the “ELISA signal relative to background” value falls from 0.84 to 0.8.

Target: T20, FX activation peptide 12-mer TWKPYDAADLDP (human)
T20 peptide: TWKPYDAADLDP-biotin
Assay: peptide ELISA
Description: as §1, §2

Going from B1 to B2, the “ELISA signal relative to background” value falls from 0.92 to 0.91.

Target: T21, FX activation peptide 12-mer APDSITWKPYDA (human)
T21 peptide: APDSITWKPYDA-biotin
Assay: peptide ELISA
Description: as §1, §2

Compared with B1, B2 is higher in “ELISA signal relative to background” value: 0.82 for the first, 0.9 for the second.

Target: T22, FX activation peptide 12-mer DAADLDPTENPF (human)
T22 peptide: DAADLDPTENPF-biotin
Assay: peptide ELISA
Description: as §1, §2

First: B1
Second: B2
The “ELISA signal relative to background” value of the first is higher: 0.81 for the first, 0.7 for the second.

Target: T23, FX activation peptide 12-mer ITWKPYDAADLD (human)
T23 peptide: ITWKPYDAADLD-biotin
Assay: peptide ELISA
Description: as §1, §2

Going from B1 to B2, the “ELISA signal relative to background” value rises from 0.83 to 0.89.

Target: T24, FX activation peptide 12-mer KPYDAADLDPTE (human)
T24 peptide: KPYDAADLDPTE-biotin
Assay: peptide ELISA
Description: as §1, §2

Compared with B1, B2 is lower in “ELISA signal relative to background” value: 0.88 for the first, 0.73 for the second.

Target: T25, FX activation peptide 12-mer GEAPDSITWKPY (human)
T25 peptide: GEAPDSITWKPY-biotin
Assay: peptide ELISA
Description: as §1, §2

Going from B1 to B2, the “ELISA signal relative to background” value falls from 0.86 to 0.8.

Target: T26, FX activation peptide 12-mer LDFNQTQPERGD (human)
T26 peptide: LDFNQTQPERGD-biotin
Assay: peptide ELISA
Description: as §1, §2

Going from B1 to B2, the “ELISA signal relative to background” value falls from 0.82 to 0.79.

Target: T27, FX activation peptide 12-mer PDSITWKPYDAA (human)
T27 peptide: PDSITWKPYDAA-biotin
Assay: peptide ELISA
Description: as §1, §2

Going from B1 to B2, the “ELISA signal relative to background” value rises from 0.83 to 0.84.

Target: T28, FX activation peptide 12-mer NPFDLLDFNQTQ (human)
T28 peptide: NPFDLLDFNQTQ-biotin
Assay: peptide ELISA
Description: as §1, §2

In the case of B1, the “ELISA signal relative to background” value is reported as 2.16.

Target: T29, FX activation peptide 12-mer SSSGEAPDSITW (human)
T29 peptide: SSSGEAPDSITW-biotin
Assay: peptide ELISA
Description: as §1, §2

Going from B1 to B2, the “ELISA signal relative to background” value falls from 0.84 to 0.73.

Target: T30, FX activation peptide 12-mer DLLDFNQTQPER (human)
T30 peptide: DLLDFNQTQPER-biotin
Assay: peptide ELISA
Description: as §1, §2

Going from B1 to B2, the “ELISA signal relative to background” value falls from 1.17 to 0.81.

Target: T31, FX activation peptide 12-mer TSSSGEAPDSIT (human)
T31 peptide: TSSSGEAPDSIT-biotin
Assay: peptide ELISA
Description: as §1, §2

First: B1
Second: B2
The “ELISA signal relative to background” value of the first is higher: 0.97 for the first, 0.75 for the second.

Target: human plasma-derived Factor X zymogen (human, UniProt P00742 41-179; P00742 183-488)
Assay: cell-based or functional assay

Sequence of human plasma-derived Factor X zymogen (P00742 41-179, chain 1 of 2): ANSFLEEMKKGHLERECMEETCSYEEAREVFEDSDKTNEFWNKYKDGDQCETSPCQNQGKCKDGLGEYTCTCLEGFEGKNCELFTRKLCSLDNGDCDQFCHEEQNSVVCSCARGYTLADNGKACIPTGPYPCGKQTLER
Sequence of human plasma-derived Factor X zymogen (P00742 183-488, chain 2 of 2): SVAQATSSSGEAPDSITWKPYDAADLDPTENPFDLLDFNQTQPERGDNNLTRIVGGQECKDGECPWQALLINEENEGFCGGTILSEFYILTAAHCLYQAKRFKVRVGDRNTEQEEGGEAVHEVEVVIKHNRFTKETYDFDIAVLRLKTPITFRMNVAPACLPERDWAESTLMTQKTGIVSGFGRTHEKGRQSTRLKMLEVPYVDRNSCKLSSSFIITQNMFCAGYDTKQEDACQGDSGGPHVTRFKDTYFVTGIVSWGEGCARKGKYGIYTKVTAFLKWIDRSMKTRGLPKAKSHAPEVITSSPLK

Compared with B1, B2 is lower in “Increase in FX activation (fold)” value: 83 fold for the first, 17.2 fold for the second.
